Source: doi:10.1101/728907 (bioRxiv, 2019)

Target: T1, GFLV-derived virus-like particles (VLP) in which enhanced GFP is encaged (Grapevine fanleaf virus, isolate not …)
T1 chain: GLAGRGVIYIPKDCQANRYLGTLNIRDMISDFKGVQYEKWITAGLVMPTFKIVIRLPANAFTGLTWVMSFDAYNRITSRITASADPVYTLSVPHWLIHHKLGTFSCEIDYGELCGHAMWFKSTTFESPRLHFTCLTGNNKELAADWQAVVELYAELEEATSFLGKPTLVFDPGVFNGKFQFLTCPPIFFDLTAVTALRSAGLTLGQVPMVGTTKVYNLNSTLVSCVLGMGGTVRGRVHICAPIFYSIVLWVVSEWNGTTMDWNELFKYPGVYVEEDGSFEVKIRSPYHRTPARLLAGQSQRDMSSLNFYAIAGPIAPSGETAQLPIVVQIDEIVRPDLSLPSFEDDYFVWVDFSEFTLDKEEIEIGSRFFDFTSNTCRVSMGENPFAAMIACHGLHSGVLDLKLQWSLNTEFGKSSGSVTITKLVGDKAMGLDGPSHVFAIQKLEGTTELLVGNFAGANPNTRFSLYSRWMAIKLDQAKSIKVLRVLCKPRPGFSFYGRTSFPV
Assay: MST

B1: Nanobody Nb23 specific to GFLV (VHH)
VHH: QVQLQESGGGSVQVGGSLRVACAASGDTFSGYLAAWFRQAPGKGREGVAAINSKRHTTSYADSVKGRFTISKDNADNIMYLEMNSLKPEDTAIYYCAAADAIGLAEYWSTPTLSAARYKYWGQGTQVTVSS
  Kd: 9.13 nM
